Our source for the protein stability index values is the supplement of paper PMC10567573.

± gives the standard deviation.

The nature of this data set: protein stability index of a GFP-peptide fusion (GPS, HEK-293T) (PSI 1-6); higher = more stable. Particulars: c terminus: a fixed tail appended.
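Further: 24-mer peptide tiles fused after GFP, lentivirally expressed, FACS-sorted into six equal bins by GFP/DsRed ratio, decoded by Illumina sequencing, PSI is the read-weighted mean bin number.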

For SESETSTMAAKKNRQSSDKQNGRV [C18orf25], the protein stability index worked out at 5.35 ± 0.17 (treatment: DMSO) and 5.16 ± 0.17 (treatment: MLN4924 1 uM, 8 h). With SFWNDCISSGLRGCMLIELALRGR [GOLPH3], the protein stability index (treatment: DMSO) is 2.71 ± 0.35 and the protein stability index (treatment: MLN4924 1 uM, 8 h) worked out at 2.66 ± 0.75. For the sequence SGAEGHSHSCYHDTRSGFWYVCRT [TRIM35], the protein stability index came out at 2.45 ± 0.17 (treatment: DMSO) and 2.64 ± 0.24 (treatment: MLN4924 1 uM, 8 h). For SGATTTAPSLSGKGNPEEEDVDTS [CTNNB1], in that order: 5.61 ± 0.31 and 5.62 ± 0.17. The corresponding values for SGFSARERLERAVSDRLAPGAPRG [MYCL] are 4.13 ± 0.3 and 4.16 ± 0.2. The corresponding values for SGGYGQDALGMDPMMEHEMGGHHP [CTNNB1] are 4.65 ± 0.18 and 4.69 ± 0.23. Regarding SGLDDFFLDIDTSAVEKEPARAPP [SERTAD3], the protein stability index was 4.71 ± 0.24 (treatment: DMSO) and 4.75 ± 0.31 (treatment: MLN4924 1 uM, 8 h). For SGRPHLPGKKKIRWDPVRRRFIQS [KLHDC10], in that order: 3.35 ± 0.26 and 3.21 ± 0.4. For SIGDIESCKLVRDKITGQSLGYGF [ELAVL3], in that order: 2.72 ± 0.21 and 2.55 ± 0.17.

As for SILNSCEDPVPGMLFFLPPGQHLS [FBXO34], the protein stability index runs as follows: (treatment: DMSO) 2.46 ± 0.2; (treatment: MLN4924 1 uM, 8 h) 2.41 ± 0.22. As for SKRMTFQMPKFDLGPLLSEPLVLY [MYOZ1], the protein stability index by setting is: (treatment: DMSO) 2.36 ± 0.39; (treatment: MLN4924 1 uM, 8 h) 2.26 ± 0.28.

In the case of SKVIEILDSQTEIYQYVQNSMAPH [DLC1], the protein stability index turned out to be 2.6 ± 0.3 (treatment: DMSO) and 2.71 ± 0.28 (treatment: MLN4924 1 uM, 8 h). As for SLAHCRHDGEDVACPQGGVQYGAG [LOXL2], the protein stability index reads like this: (treatment: DMSO) 4.65 ± 0.5; (treatment: MLN4924 1 uM, 8 h) 3.96 ± 0.41. For SLDKVQRSLGPRAPSLRRHVLIHN [SERTAD3], in that order: 3.02 ± 0.32 and 2.96 ± 0.29. In the case of SLLSKARGIDSSSVKLRGSSLFMD [WEE1], the protein stability index is, setting by setting: (treatment: DMSO) 2.75 ± 0.2; (treatment: MLN4924 1 uM, 8 h) 2.49 ± 0.19. In the case of SLPQNQCYMATTKSQTACLPFVLA [EHMT1], the protein stability index came to 2.35 ± 0.08 (treatment: DMSO) and 2.23 ± 0.15 (treatment: MLN4924 1 uM, 8 h). The corresponding values for SLTDSVNHHSPGGSSDASGSYSST [ESRRG] are 4.99 ± 0.28 and 5.1 ± 0.15. For SMTAGVSEREANDALNAYVCKGLP [INTS3], in that order: 4.37 ± 0.16 and 4.38 ± 0.14.

Consider SMVPPSPAMAASKALGSDLDSSLA [SNAP91], for which the protein stability index worked out at 4.59 ± 0.097 (treatment: DMSO) and 4.6 ± 0.26 (treatment: MLN4924 1 uM, 8 h). The corresponding values for SNLQAMSTQMFQTKRCFRLAPTFS [SMG5] are 2.17 ± 0.36 and 2.2 ± 0.14. For SNTGSESNSATVEEPPTDPIPEDE [SMARCE1], in that order: 5.48 ± 0.45 and 5.33 ± 0.51. The corresponding values for SPEQQFDRSVQRLLATRIAVYLMT [TMEM175] are 2.31 ± 0.51 and 2.43 ± 0.66. In turn, SPEVESLPVASSSTLLPLAPSNST [NFE2L1] had a protein stability index (treatment: DMSO) of 5.04 ± 0.23 and a protein stability index (treatment: MLN4924 1 uM, 8 h) of 5.27 ± 0.13. For SPKGTLPPAALESSDSANTTIEDE [CAMK2B], in that order: 5.64 ± 0.16 and 5.54 ± 0.29. For SPNLNVVDGRLTYPTCGIGYPVSS [SASS6], in that order: 3.06 ± 0.44 and 3.14 ± 0.4.

For the sequence SPRSTSVTTTSSASVTTTSNASGR [KRT13], the protein stability index is, setting by setting: (treatment: DMSO) 5.31 ± 0.2; (treatment: MLN4924 1 uM, 8 h) 5.32 ± 0.12.

As to SPSHKGIAAPHAGANVKPRNSTPP [ZC2HC1A], the protein stability index by setting is: (treatment: DMSO) 4.92 ± 0.092; (treatment: MLN4924 1 uM, 8 h) 4.86 ± 0.54. The corresponding values for SPSSDRVSAIIWEGNECKKMDMSV [PHTF1] are 3.6 ± 0.26 and 3.73 ± 0.43.

Consider SPWADGTPCGPAQACMGGRCLHMD [ADAMTS4], for which the protein stability index was found to be 4.28 ± 0.21 (treatment: DMSO) and 4.47 ± 0.36 (treatment: MLN4924 1 uM, 8 h). In the case of SQIQGLIGSVEEQLAQLRCEMEQQ [KRT16], the protein stability index was 4.387 ± 0.042 (treatment: DMSO) and 4.52 ± 0.28 (treatment: MLN4924 1 uM, 8 h).

As for SQMVSTDNSLSSQNYISQKEDASE [MIA2], the protein stability index is 5.29 ± 0.44 (treatment: DMSO) and 5.21 ± 0.26 (treatment: MLN4924 1 uM, 8 h). Regarding SQPLDREATSHYIIELLASDAGSP [PCDHGC5], the protein stability index was 3.33 ± 0.27 (treatment: DMSO) and 3.52 ± 0.2 (treatment: MLN4924 1 uM, 8 h). For the sequence SRRYTEMALPFFSLAEVRVGYQSQ [MYORG], the protein stability index is, setting by setting: (treatment: DMSO) 2.3 ± 0.16; (treatment: MLN4924 1 uM, 8 h) 2.29 ± 0.039. For SRSHDRLPYQRRYRERRDSDTYRC [CLK3], in that order: 4.09 ± 0.27 and 4.24 ± 0.36.

Turning to SRVTASSGITIPKPPKPPDKPLMP [SMARCE1], the protein stability index (treatment: DMSO) was 3.78 ± 0.25 and the protein stability index (treatment: MLN4924 1 uM, 8 h) amounted to 3.94 ± 0.18. For SSAPDLMCLSPDRKMEVEELSPLA [CDC25B], the protein stability index (treatment: DMSO) was 5 ± 0.37 and the protein stability index (treatment: MLN4924 1 uM, 8 h) was found to be 5 ± 0.22. Sequence SSGGSSGSSSDNRTYRYSNRYCGG [DYRK1B] registered a protein stability index (treatment: DMSO) of 4.04 ± 0.23 and a protein stability index (treatment: MLN4924 1 uM, 8 h) of 4.07 ± 0.12. As for SSKTITAEIPDGPPVVAHYDMSDT [C18orf25], the protein stability index is, setting by setting: (treatment: DMSO) 5.14 ± 0.14; (treatment: MLN4924 1 uM, 8 h) 4.96 ± 0.23.

SSRDKLTEMAASSQGNFEGNFESL [FUNDC2]: the protein stability index runs as follows: (treatment: DMSO) 4.88 ± 0.28; (treatment: MLN4924 1 uM, 8 h) 5.03 ± 0.42. The corresponding values for SSRSTVPTPAKRRSSALWSEMLDI [NET1] are 2.62 ± 0.25 and 2.96 ± 0.46. Regarding SSSSASADLLAGFGGSFMAPSPSP [SNAP91], the protein stability index runs as follows: (treatment: DMSO) 4.24 ± 0.1; (treatment: MLN4924 1 uM, 8 h) 4.3 ± 0.24. For SSSSSSSWLTRRAIRPENRAPGAG [EMD], in that order: 4.33 ± 0.25 and 4.16 ± 0.25. The corresponding values for STRWEVIAEDGTKEIESQGSIPGF [TAF7L] are 4.58 ± 0.067 and 4.54 ± 0.3.

SYAFGKFPTVVWTWWIMFLSTFSV [SOAT1]: the protein stability index runs as follows: (treatment: DMSO) 2.98 ± 0.57; (treatment: MLN4924 1 uM, 8 h) 2.97 ± 0.29. The corresponding values for SYPVMGFEFQVRVCDSCYDSIKDE [WDFY1] are 2.76 ± 0.18 and 3.06 ± 0.39. Consider SYSRLCRESGAEPQEAVLQQLHQL [LRRC45], for which the protein stability index (treatment: DMSO) worked out at 3.71 ± 0.29 and the protein stability index (treatment: MLN4924 1 uM, 8 h) was found to be 3.71 ± 0.19. For TAAASRERQEEQSAAIHISETLEQ [EPB41L3], in that order: 5.5 ± 0.061 and 5.4 ± 0.52. For TAHMLGVRELRIAFREFDRDRDGR [CABP4], in that order: 3.68 ± 0.34 and 3.7 ± 0.076. On to TAKNSRVVCGMFGFPGERTYNTKV [LOXL2], for which the protein stability index (treatment: DMSO) was 2.6 ± 0.3 and the protein stability index (treatment: MLN4924 1 uM, 8 h) came out at 2.63 ± 0.067. In turn, TALLGGPRRCHSAPPQGSCGDELP [PLEKHN1] returned a protein stability index (treatment: DMSO) of 4.1 ± 0.3 and a protein stability index (treatment: MLN4924 1 uM, 8 h) of 4.45 ± 0.47. The corresponding values for TAQHQRRLAAIAQEKDQEMERLRE [FBF1] are 5.36 ± 0.17 and 5.42 ± 0.14. Consider TARAHPAKARDLYKGRQLQGCPGA [SMOC2], for which the protein stability index amounted to 3.23 ± 0.64 (treatment: DMSO) and 4.41 ± 0.57 (treatment: MLN4924 1 uM, 8 h). For TAYIRVKVDGPRSPSYGRSRSRSR [SRSF1], in that order: 3.75 ± 0.21 and 4 ± 0.29. The corresponding values for TCISELRMLQREGCFRSQGASLRL [M1AP] are 2 ± 0.29 and 2.19 ± 0.37.

Turning to TCQKFLIQYNRRQLLILLQNCTDE [POP5], the protein stability index turned out to be 2.73 ± 0.31 (treatment: DMSO) and 2.36 ± 0.21 (treatment: MLN4924 1 uM, 8 h). The corresponding values for TCVVPFDSEEEVIERANNVKYGLA [ALDH8A1] are 4.29 ± 0.33 and 4.41 ± 0.23.

For TCVYIAEIAPQHRRGLLVSLNELM [SLC2A12], the protein stability index is 2.73 ± 0.6 (treatment: DMSO) and 2.46 ± 0.56 (treatment: MLN4924 1 uM, 8 h). The corresponding values for TDGDHNVYPRPPEPREFSSRNFGV [ZC2HC1C] are 3.89 ± 0.23 and 3.97 ± 0.18. For TDGRSPRRSRDPGYDHLWDETLSS [PLEKHN1], in that order: 4.33 ± 0.24 and 4.45 ± 0.23. The corresponding values for TDIDIDTLCAVLERDTLSIRESRL [BTBD1] are 2.84 ± 0.2 and 3.15 ± 0.37. For the sequence TDSDDDFDMSRYSSSGYSSAEINQ [FAM219A], the protein stability index reads like this: (treatment: DMSO) 5.04 ± 0.21; (treatment: MLN4924 1 uM, 8 h) 5.22 ± 0.37. For the sequence TDYINASFMDGYKQKNAYIGTQGP [PTPN9], the protein stability index runs as follows: (treatment: DMSO) 2.94 ± 0.24; (treatment: MLN4924 1 uM, 8 h) 3.21 ± 0.21.

In turn, TEFRKGAQSLPGPCAAAREGRLER [IRX6] came in with a protein stability index (treatment: DMSO) of 4.53 ± 0.17 and a protein stability index (treatment: MLN4924 1 uM, 8 h) of 4.62 ± 0.21.

Regarding TENRYCVQLSQIQGLIGSVEEQLA [KRT17], the protein stability index was 3.1 ± 0.51 (treatment: DMSO) and 3.24 ± 0.22 (treatment: MLN4924 1 uM, 8 h).

In the case of TGEIMHALKMTWHVHCFTCAACKT [PDLIM7], the protein stability index came out at 2.69 ± 0.33 (treatment: DMSO) and 2.27 ± 0.25 (treatment: MLN4924 1 uM, 8 h).

In the case of TGLSMIANGGAICAVTFFTILLSY [OR4A15], the protein stability index is, setting by setting: (treatment: DMSO) 2.85 ± 0.28; (treatment: MLN4924 1 uM, 8 h) 3.16 ± 0.38. For TILLDGRRVRLELWDTSGQGRFCT [RAB40C], in that order: 2.16 ± 0.2 and 2.14 ± 0.34.

Turning to TISSWRNDRMSTRHDGYATNDGNH [RBMY1A1], the protein stability index runs as follows: (treatment: DMSO) 3.99 ± 0.23; (treatment: MLN4924 1 uM, 8 h) 4.02 ± 0.086. TKQWTLIAKHLKGRLGKQCRERWH [MYBL2]: the protein stability index (treatment: DMSO) is 2.51 ± 0.68 and the protein stability index (treatment: MLN4924 1 uM, 8 h) turned out to be 2.26 ± 0.38.

Where the note is “treatment: MLN4924 1 uM, 8 h”, TLAGVGAQGAALEDPDYYGQEIWS [CPXM2] yielded a protein stability index of 3.96 ± 0.11.

Take TLHQRTHTEERPFKCNYCGKSFRQ [ZNF449]: the protein stability index came out at 2.55 ± 0.33 (treatment: DMSO) and 2.91 ± 0.51 (treatment: MLN4924 1 uM, 8 h). For TLLAIGTKLPENQAIQMRLVDVAC [INTS4], in that order: 2.12 ± 0.19 and 2.09 ± 0.15.
